PMC6274866, “The 2β Splice Variation Alters the Structure and Function of the Stromal Interaction Molecule Coiled-Coil Domains” (International Journal of Molecular Sciences, 2018)

Assays:
[1] = molecular target: the molecule itself; assay: SEC-MALS; 1 mg/mL protein injected on Superdex 200 Increase 10/300 GL at 10 °C; 20 mM TRIS, 300 mM NaCl, 1 mM DTT, pH 8.0; without CaCl2; stoichiometric ratio = MALS molecular weight / theoretical monomer mass
[2] = molecular target: the molecule itself; assay: SEC-MALS; 1 mg/mL protein injected on Superdex 200 Increase 10/300 GL at 10 °C; 20 mM TRIS, 300 mM NaCl, 1 mM DTT, pH 8.0; with 25 mM CaCl2; stoichiometric ratio = MALS molecular weight / theoretical monomer mass

B1: STIM1-2β-OASF (STIM1-OASF mutated to contain the VAASYLIQ (2β) insertion after G379) (domain or fragment, human, UniProt Q13586-1 234-491, looked up)
chain: NRYSKEHMKKMMKDLEGLHRAEQSLHDLQERLHKAQEEHRTVEVEKVHLEKKLRDEINLAKQEAQRLKELREGTENERSRQKYAEEELEQVREALRKAEKELESHSSWYAPEALQKWLQLTHEVEVQYYNIKKQNAEKQLLVAKEGVAASYLIQAEKIKKKRNTLFGTFHVAHSSSLDDVDHKILTAKQALSEVTAALRERLHRWQQIEILCGFQIVNNPGIHSLVAALNIDPSWMGSTRPNPAHFIMTDDVDDMDEEIVSPLSMQ
notes: Made by PCR-mediated site-directed mutagenesis of pET-28a-STIM1-OASF; A few vector residues probably remain after thrombin cleavage (surmise); source: E. coli BL21 (DE3), purified under denaturing conditions (guanidine-HCl, nickel-NTA), renatured, thrombin-cleaved, SEC
stoichiometry N [1]: 2.02
stoichiometry N [2]: 1.96
